B1: HDAC6 (parent)
chain: DLMETTQYMNEGELRVLADTYDSV
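Also: lentivirally expressed fusions sorted by FACS into six bins by GFP to DsRed ratio, PSI derived from sequencing read proportions per bin multiplied by bin number.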

Variants of: B1
Assay: protein stability index of a GFP-peptide fusion (GPS, HEK-293T) (PSI 1-6); higher = more stable
Details: c terminus: a fixed tail appended
DLMETTDYMNEGELRVLADTYDSV [Q7D] showed a protein stability index of 2.35.
Variant DLMETTSYMNEGELRVLADTYDSV [Q7S] has a protein stability index of 2.02.
In the case of DLMETTNYMNEGELRVLADTYDSV [Q7N], the protein stability index is reported as 2.12.
In the case of DLMETTRYMNEGELRVLADTYDSV [Q7R], the protein stability index is reported as 1.14.
Work on DLMETTTYMNEGELRVLADTYDSV [Q7T] yielded a protein stability index of 2.37.
DLMETTHYMNEGELRVLADTYDSV [Q7H] gave a protein stability index of 1.14.
Work on DLMETTKYMNEGELRVLADTYDSV [Q7K] yielded a protein stability index of 2.12.
Work on DLMETTGYMNEGELRVLADTYDSV [Q7G] yielded a protein stability index of 2.05.
In the case of DLMETTLYMNEGELRVLADTYDSV [Q7L], the protein stability index is reported as 2.12.
Work on DLMETTAYMNEGELRVLADTYDSV [Q7A] yielded a protein stability index of 1.53.
For DLMETTEYMNEGELRVLADTYDSV [Q7E], the protein stability index was 1.97.
DLMETTYYMNEGELRVLADTYDSV [Q7Y] showed a protein stability index of 2.52.
Variant DLMETTVYMNEGELRVLADTYDSV [Q7V] has a protein stability index of 1.67.
With DLMETTPYMNEGELRVLADTYDSV [Q7P] the protein stability index was 3.69.
With DLMETAQYMNEGELRVLADTYDSV [T6A] the protein stability index was 1.75.
With DLMETPQYMNEGELRVLADTYDSV [T6P] the protein stability index was 2.3.
In the case of DLMETCQYMNEGELRVLADTYDSV [T6C], the protein stability index is reported as 2.5.
For DLMETFQYMNEGELRVLADTYDSV [T6F], the protein stability index was 1.44.
Work on DLMETGQYMNEGELRVLADTYDSV [T6G] yielded a protein stability index of 3.57.
In the case of DLMETQQYMNEGELRVLADTYDSV [T6Q], the protein stability index is reported as 1.94.
Variant DLMETRQYMNEGELRVLADTYDSV [T6R] has a protein stability index of 2.24.
DLMETWQYMNEGELRVLADTYDSV [T6W] gave a protein stability index of 1.73.
DLMETNQYMNEGELRVLADTYDSV [T6N] showed a protein stability index of 2.42.
For DLMETYQYMNEGELRVLADTYDSV [T6Y], the protein stability index was 1.66.
Work on DLMETKQYMNEGELRVLADTYDSV [T6K] yielded a protein stability index of 1.02.
DLMETMQYMNEGELRVLADTYDSV [T6M] gave a protein stability index of 1.63.
With DLMETVQYMNEGELRVLADTYDSV [T6V] the protein stability index was 1.46.
Work on DLMETHQYMNEGELRVLADTYDSV [T6H] yielded a protein stability index of 2.29.
In the case of DLMETSQYMNEGELRVLADTYDSV [T6S], the protein stability index is reported as 1.56.
For DLMETEQYMNEGELRVLADTYDSV [T6E], the protein stability index was 2.88.
DLMETTQYMNEGALRVLADTYDSV [E13A] gave a protein stability index of 3.38.
With DLMETTQYMNEGCLRVLADTYDSV [E13C] the protein stability index was 3.37.
Variant DLMETTQYMNEGDLRVLADTYDSV [E13D] has a protein stability index of 3.9.
With DNMETTQYMNEGELRVLADTYDSV [L2N] the protein stability index was 4.32.
DVMETTQYMNEGELRVLADTYDSV [L2V] gave a protein stability index of 1.62.
With DMMETTQYMNEGELRVLADTYDSV [L2M] the protein stability index was 3.77.
With DKMETTQYMNEGELRVLADTYDSV [L2K] the protein stability index was 4.96.
For DPMETTQYMNEGELRVLADTYDSV [L2P], the protein stability index was 4.8.
DQMETTQYMNEGELRVLADTYDSV [L2Q] gave a protein stability index of 4.68.
Variant DWMETTQYMNEGELRVLADTYDSV [L2W] has a protein stability index of 3.31.
Variant DTMETTQYMNEGELRVLADTYDSV [L2T] has a protein stability index of 4.52.
DYMETTQYMNEGELRVLADTYDSV [L2Y] showed a protein stability index of 3.88.
For DRMETTQYMNEGELRVLADTYDSV [L2R], the protein stability index was 4.52.
DLMETTQIMNEGELRVLADTYDSV [Y8I] showed a protein stability index of 4.19.
Variant DLMETTQAMNEGELRVLADTYDSV [Y8A] has a protein stability index of 3.88.
For DLMETTQFMNEGELRVLADTYDSV [Y8F], the protein stability index was 1.65.
DLMETTQCMNEGELRVLADTYDSV [Y8C] showed a protein stability index of 4.07.
In the case of DLMETTQEMNEGELRVLADTYDSV [Y8E], the protein stability index is reported as 4.21.
Variant DLMETTQPMNEGELRVLADTYDSV [Y8P] has a protein stability index of 5.51.
With DLMETTQRMNEGELRVLADTYDSV [Y8R] the protein stability index was 3.66.
Variant DLMETTQWMNEGELRVLADTYDSV [Y8W] has a protein stability index of 1.89.
DLMETTQLMNEGELRVLADTYDSV [Y8L] gave a protein stability index of 4.27.
Work on DLMETTQGMNEGELRVLADTYDSV [Y8G] yielded a protein stability index of 4.5.
Work on DLMETTQKMNEGELRVLADTYDSV [Y8K] yielded a protein stability index of 4.56.
For DLMETTQMMNEGELRVLADTYDSV [Y8M], the protein stability index was 4.29.
For DLMETTQSMNEGELRVLADTYDSV [Y8S], the protein stability index was 5.09.
For DLMETTQDMNEGELRVLADTYDSV [Y8D], the protein stability index was 4.62.
Work on DLMETTQHMNEGELRVLADTYDSV [Y8H] yielded a protein stability index of 4.78.
Work on DLMETTQNMNEGELRVLADTYDSV [Y8N] yielded a protein stability index of 4.67.
In the case of DLMETTQTMNEGELRVLADTYDSV [Y8T], the protein stability index is reported as 4.36.
DLMETTQQMNEGELRVLADTYDSV [Y8Q] gave a protein stability index of 4.22.
DLMETTQYMNFGELRVLADTYDSV [E11F] showed a protein stability index of 2.
Variant DLMETTQYMNYGELRVLADTYDSV [E11Y] has a protein stability index of 2.43.
With DLMETTQYMNHGELRVLADTYDSV [E11H] the protein stability index was 2.78.
DLMETTQYMNWGELRVLADTYDSV [E11W] showed a protein stability index of 1.89.
In the case of DLMETTQYMNAGELRVLADTYDSV [E11A], the protein stability index is reported as 2.15.
DLMETTQYMNLGELRVLADTYDSV [E11L] showed a protein stability index of 2.6.
For DLMETTQYMNIGELRVLADTYDSV [E11I], the protein stability index was 1.86.
DLMETTQYMNSGELRVLADTYDSV [E11S] showed a protein stability index of 2.95.
DLMETTQYMNGGELRVLADTYDSV [E11G] showed a protein stability index of 3.58.
Work on DLMETTQYMNRGELRVLADTYDSV [E11R] yielded a protein stability index of 3.19.
DLMETTQYMNMGELRVLADTYDSV [E11M] showed a protein stability index of 3.15.
In the case of DLMETTQYMNTGELRVLADTYDSV [E11T], the protein stability index is reported as 2.9.
In the case of DLMETTQYMNVGELRVLADTYDSV [E11V], the protein stability index is reported as 2.45.
For DLMETTQYMNDGELRVLADTYDSV [E11D], the protein stability index was 1.69.
Variant DLMETTQYMNCGELRVLADTYDSV [E11C] has a protein stability index of 2.47.
Work on DLMETTQYMNQGELRVLADTYDSV [E11Q] yielded a protein stability index of 2.6.
In the case of DLMETTQYMNNGELRVLADTYDSV [E11N], the protein stability index is reported as 3.13.
DLMETTQYMNKGELRVLADTYDSV [E11K] gave a protein stability index of 2.89.
Variant DLMETTQYMNPGELRVLADTYDSV [E11P] has a protein stability index of 3.65.
For DLMETTQYHNEGELRVLADTYDSV [M9H], the protein stability index was 4.55.
Work on DLMETTQYVNEGELRVLADTYDSV [M9V] yielded a protein stability index of 3.6.
Work on DLMETTQYPNEGELRVLADTYDSV [M9P] yielded a protein stability index of 4.55.
DLMETTQYRNEGELRVLADTYDSV [M9R] showed a protein stability index of 4.28.
In the case of DLMETTQYFNEGELRVLADTYDSV [M9F], the protein stability index is reported as 3.44.
For DLMETTQYTNEGELRVLADTYDSV [M9T], the protein stability index was 4.82.
DLMETTQYCNEGELRVLADTYDSV [M9C] showed a protein stability index of 4.25.
DLMETTQYENEGELRVLADTYDSV [M9E] showed a protein stability index of 4.61.
DLMETTQYSNEGELRVLADTYDSV [M9S] showed a protein stability index of 4.68.
For DLMETTQYGNEGELRVLADTYDSV [M9G], the protein stability index was 4.71.
With DLMETTQYINEGELRVLADTYDSV [M9I] the protein stability index was 4.14.
DLMETTQYANEGELRVLADTYDSV [M9A] showed a protein stability index of 4.57.
In the case of DLMETTQYWNEGELRVLADTYDSV [M9W], the protein stability index is reported as 3.37.
For DLMETTQYQNEGELRVLADTYDSV [M9Q], the protein stability index was 4.92.

Reference: the supplement of paper PMC10567573
